Measured values as given in paper PMC4169570, “Acyl-Homoserine Lactone Recognition and Response Hindering the Quorum-Sensing Regulator EsaR”.
Substitutions are numbered along the chain they refer to.

Columns and labels:
Settings in all cases: protein: recombinant; tags: N-terminal His6-MBP-TEV-Gly5; chain copies: 2; label: 5' TAMRA on strand 1; blunt
[1] = biological target: T1, HMGE F94Y (Pantoea stewartii subsp. stewartii, UniProt P54293 1-249, F94Y); assay: fluorescence anisotropy; 1 uM AHL; 150 mM NaCl, 6 mM HEPES, 17.5 mM Tris, 3% glycerol, pH 7.6, 25 C, 20 min; 3 nM T-esabox, 0-100 nM protein
T1 sequence: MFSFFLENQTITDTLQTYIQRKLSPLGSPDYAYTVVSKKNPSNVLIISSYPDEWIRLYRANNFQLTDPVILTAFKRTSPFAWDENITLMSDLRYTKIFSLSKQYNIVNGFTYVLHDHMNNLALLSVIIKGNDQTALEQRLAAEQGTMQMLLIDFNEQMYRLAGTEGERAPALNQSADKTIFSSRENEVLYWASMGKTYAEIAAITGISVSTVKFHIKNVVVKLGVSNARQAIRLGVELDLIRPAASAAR

[2] = biological target: T2, HMGE A32V (Pantoea stewartii subsp. stewartii, UniProt P54293 1-249, A32V); assay: as above
T2 sequence: T1 sequence with A32V, Y94F

[3] = biological target: T3, HMGE D83E (Pantoea stewartii subsp. stewartii, UniProt P54293 1-249, D83E); assay: as above
T3 sequence: T1 sequence with D83E, Y94F

[4] = biological target: T4, HMGE (His6-MBP-TEV-Gly5-EsaR wild type) (Pantoea stewartii subsp. stewartii, UniProt P54293 1-249); assay: as above
T4 sequence: T1 sequence with Y94F

[5] = biological target: T1, HMGE F94Y; assay: fluorescence anisotropy; no AHL; 150 mM NaCl, 6 mM HEPES, 17.5 mM Tris, 3% glycerol, pH 7.6, 25 C, 20 min; 3 nM T-esabox, 0-100 nM protein
[6] = biological target: T2, HMGE A32V; assay: as above
[7] = biological target: T3, HMGE D83E; assay: as above
[8] = biological target: T4, HMGE (His6-MBP-TEV-Gly5-EsaR wild type); assay: as above

B1: T-esabox (PesaR28 TAMRA/PesaR28R) (dsDNA)
DNA 1: TCTTGCCTGTACTATAGTGCAGGTTAAG
DNA 2: CTTAACCTGCACTATAGTACAGGCAAGA
B1 was tested, and the Kd [1] was 2.65 ± 1.03 nM, the Kd [2] was 2.33 ± 1.06 nM and the Kd [3] was 2.91 ± 0.58 nM. The Kd [4] was 6.19 ± 1.31 nM, the Kd [5] was 3.26 ± 0.93 nM and the Kd [6] was 2.18 ± 0.73 nM. It also gave a Kd [7] of 4.01 ± 1.13 nM and a Kd [8] of 3.11 ± 0.33 nM.
